# Experimental data from the Immune Epitope Database (IEDB).
# Assays:
# HLA-C*14:02 [1] = assay: IEDB peptide-MHC binding, purified MHC/direct/fluorescence; filed as Kd, often an IC50 or EC50 that approximates it; ≥ and ≤ were set here for values at or beyond the usual limits of such assays; conditions: source organism: Mycobacterium tuberculosis variant bovis BCG str. Pasteur 1173P2
# HLA-B*83:01 = assay: IEDB peptide-MHC binding, purified MHC/competitive/fluorescence; filed as Kd, often an IC50 or EC50 that approximates it; ≥ and ≤ were set here for values at or beyond the usual limits of such assays; conditions: source organism: Rattus norvegicus
# HLA-B*15:17 = assay: as above; conditions: source organism: Rattus norvegicus
# HLA-B*27:03 [2] = assay: as above; conditions: source organism: Rattus norvegicus
# HLA-B*45:06 = assay: as above; conditions: source organism: Rattus norvegicus
# HLA-C*14:02 [3] = assay: as above; conditions: source organism: Rattus norvegicus
# HLA-B*15:42 = assay: as above; conditions: source organism: Rattus norvegicus
# HLA-C*03:03 = assay: IEDB peptide-MHC binding, purified MHC/direct/fluorescence; filed as Kd, often an IC50 or EC50 that approximates it; ≥ and ≤ were set here for values at or beyond the usual limits of such assays; conditions: source organism: Rattus norvegicus
# HLA-C*12:03 = assay: as above; conditions: source organism: Rattus norvegicus
# HLA-B*07:02 = assay: as above; conditions: source organism: Mus musculus
# HLA-A*03:01 = assay: as above
# HLA-A*02:03 = assay: as above
# HLA-A*26:01 = assay: as above
# HLA-B*46:01 = assay: as above
# HLA-A*02:19 = assay: as above
# HLA-B*27:03 [4] = assay: as above
# HLA-B*39:01 = assay: as above
# HLA-B*57:01 = assay: as above
# HLA-A*02:11 = assay: as above
# HLA-A*02:16 = assay: as above
# HLA-A*68:02 = assay: as above; conditions: source organism: Mycobacterium tuberculosis str. Haarlem
# HLA-A*02:01 [5] = assay: as above
# HLA-B*51:01 = assay: as above
# HLA-B*15:01 = assay: as above
# HLA-B*18:01 = assay: as above
# HLA-A*02:12 = assay: as above
# HLA-A*02:01 [6] = assay: IEDB peptide-MHC binding, purified MHC/competitive/radioactivity; ≥ and ≤ were set here for values at or beyond the usual limits of such assays
# HLA-A*24:03 = assay: IEDB peptide-MHC binding, purified MHC/direct/fluorescence; filed as Kd, often an IC50 or EC50 that approximates it; ≥ and ≤ were set here for values at or beyond the usual limits of such assays; conditions: source organism: Rickettsia bellii RML369-C
# HLA-A*29:02 = assay: as above; conditions: source organism: Rickettsia bellii RML369-C
# [7] = source organism: Mycobacterium tuberculosis str. Haarlem
# [8] = source organism: Rickettsia bellii RML369-C
sequence,measurement,setting,value
AARIAGRHM,Kd,HLA-C*14:02 [1],654 nM
FLRKNQRAL,Kd,HLA-B*83:01,≥ 5 µM
same,Kd,HLA-B*15:17,≥ 20 µM
same,Kd,HLA-B*27:03 [2],≥ 20 µM
same,Kd,HLA-B*45:06,≥ 5 µM
same,Kd,HLA-C*14:02 [3],12.9 nM
same,Kd,HLA-B*15:42,≥ 5 µM
same,Kd,HLA-C*03:03,52 nM
same,Kd,HLA-C*12:03,383 nM
same,Kd,HLA-B*07:02,0.9 nM
LPVEYLQVP,Kd,HLA-A*03:01; [7],≥ 20 µM
same,Kd,HLA-A*02:03; [7],≥ 20 µM
same,Kd,HLA-A*26:01; [7],≥ 20 µM
same,Kd,HLA-B*46:01; [7],≥ 20 µM
same,Kd,HLA-A*02:19; [7],≥ 20 µM
same,Kd,HLA-B*27:03 [4]; [7],≥ 20 µM
same,Kd,HLA-B*39:01; [7],≥ 20 µM
same,Kd,HLA-B*57:01; [7],≥ 20 µM
same,Kd,HLA-A*02:11; [7],≥ 20 µM
same,Kd,HLA-A*02:16; [7],≥ 20 µM
same,Kd,HLA-A*68:02,≥ 20 µM
same,Kd,HLA-A*02:01 [5]; [7],≥ 20 µM
same,Kd,HLA-B*51:01; [7],≥ 20000 nM
same,Kd,HLA-B*15:01; [7],≥ 20 µM
same,Kd,HLA-B*18:01; [7],≥ 20 µM
same,Kd,HLA-A*02:12; [7],≥ 20 µM
NLYVSLLLL,IC50,HLA-A*02:01 [6]; source organism: Hepatitis B virus subtype ayw,77 nM
NPLEIYQEI,Kd,HLA-A*03:01; [8],≥ 20 µM
same,Kd,HLA-A*02:03; [8],≥ 20 µM
same,Kd,HLA-A*26:01; [8],≥ 20 µM
same,Kd,HLA-B*46:01; [8],≥ 20 µM
same,Kd,HLA-A*02:19; [8],≥ 20 µM
same,Kd,HLA-B*27:03 [4]; [8],≥ 20 µM
same,Kd,HLA-B*39:01; [8],≥ 20 µM
same,Kd,HLA-A*24:03,≥ 20 µM
same,Kd,HLA-A*29:02,≥ 20 µM
same,Kd,HLA-B*57:01; [8],≥ 20 µM
same,Kd,HLA-A*02:11; [8],≥ 20 µM
same,Kd,HLA-A*02:16; [8],≥ 20 µM
same,Kd,HLA-A*02:01 [5]; [8],≥ 20 µM
same,Kd,HLA-B*51:01; [8],132 nM
same,Kd,HLA-B*15:01; [8],≥ 20 µM
same,Kd,HLA-B*18:01; [8],≥ 20 µM
same,Kd,HLA-A*02:12; [8],≥ 20 µM
QMVSSVTFI,IC50,HLA-A*02:01 [6]; source organism: Rhinovirus A,200 nM
SLADTNSLAV,IC50,HLA-A*02:01 [6]; source organism: Homo sapiens,79.4 nM
